In patent US20190282616A1, “MACROPHAGES REDIRECT PHAGOCYTOSIS BY NON-PROFESSIONAL PHAGOCYTES AND INFLUENCE INFLAMMATION” (University of Virginia Patent Foundation, priority 2016, published 2019):

Key:
LR73 cells = assay: In vitro engulfment assay: apoptotic thymocyte uptake by LR73 cells; assay type: cell-based, hamster; details: soluble mediator alone; IGF-I at concentrations reported in serum (100-600 ng/mL); other factors over a range of concentrations
Protocol: LR73, SVEC-40, BEAS-2B, and 16HBE14o-cells were seeded in a 24 well plate. Thymocytes were isolated from 4-6 week old mice and induced to undergo apoptosis with dexamethasone. Thymocytes or prepared microvesicles were then stained with either CypHer5E (GE Healthcare, PA15401) or TAMRA (Invitrogen, C-1171). LR73 and SVEC-40 cells were incubated with apoptotic thymocytes at a 1:10 phagocyte to target ratio, BEAS-2B at a 1:5 phagocyte to target ratio, and 16HBE14o—at a 1:20 phagocyte to target ratio for 2 hours. Mouse IGF-I (Sigma-Aldrich), human IGF-I (Sigma-Aldrich), human IGF-II (Sigma-Aldrich) were added to the phagocytes at the same time as addition of apoptotic targets. For IGFBP3 studies, IGFBP3 (Sigma-Aldrich) was added to media or supernatant from J774 cells for one hour to allow IGFBP3 to bind to any available IGF-I, then the mix is added to phagocytes along with apoptotic targets. […] Targets were then washed off three times with PBS, and the cells were dissociated from the plate with trypsin and the engulfment assessed by flow cytometry.

[1] = tested on: IGF-1R, Akt and Erk1/2 phosphorylation in LR73 cells; assay: Immunoblotting of signaling in LR73 cells; assay type: cell-based, hamster; details: serum-starved LR73 cells, 100 ng/mL growth factor
Protocol: LR73, J774, or BEAS-2B cells were seeded in a 60 mm dish at a concentration of 5×10^5. […] Cells were lysed in RIPA buffer and used in Western blots. The blots were probed for phospho-Erk1/2 (Cell Signaling Technology, #4370), phospho-Akt (Cell Signaling Technology, #4060), phospho-IGF-1R (Cell Signaling, #3024), total Erk2 (Santa Cruz Biotechnology, #sc-154-G), total Akt (Cell Signaling Technology, #4691), total IGF-1R (Cell Signaling, #9750), and anti-B-actin-HRP (Sigma-Aldrich, #A3854) followed by chemiluminescence detection.

IGF-1 in BAL fluid = assay: In vivo cytokine administration: IGF-1 in BAL fluid; details: 1 μg recombinant mouse cytokine intranasally for two consecutive days
Protocol: Mice were administered intranasally with 1 μg of recombinant mouse IL-4, IL-5, or IL-13 (eBiosciences), 1×10^6 apoptotic Jurkat cells, or PBS as control, for two consecutive days. On the third day, BAL fluid was recovered and centrifuged; the supernatant was stored at −80° C. for subsequent cytokine analysis. IL-4, IL-5, IL-6, and CCL-11/Eotaxin-1 in the BAL fluid of mice that were sensitized with HDM (regimen #1) were quantified by a multiplex Luminex performed by the University of Virginia Flow Cytometry Core Facility. Secretion of IGF-1 from J774 cells, peritoneal macrophages, and BAL fluids, as well as TSLP from BAL fluids, were measured by ELISA (R&D Systems).

B1: PDGF-BB: growth factor of the tested panel of soluble mediators (protein, UniProt P01127 82-190, looked up)
Platelet-derived growth …: SLGSLTIAEPAMIAECKTRTEVFEISRRLIDRTNANFLVWPPCVEVQRCSGCCNNRNVQCRPTQVQLRPVQVRKIEIVRKKPIFKKATVTLEDHLACKCETVAAARPVT
modifications: homodimer
notes: growth factor of the tested panel of soluble mediators
apoptotic cell uptake (engulfment) by LR73 cells (LR73 cells): did not alter engulfment
early downstream signaling events (Erk1/2 phosphorylation) [1]: elicited early downstream signaling events

B2: IL-5: cytokine; recombinant mouse IL-5 (eBiosciences) (protein, UniProt P04401 21-133, looked up)
Interleukin-5: MEIPMSTVVKETLTQLSAHRALLTSNETMRLPVPTHKNHQLCIGEIFQGLDILKNQTVRGGTVEMLFQNLSLIKKYIDRQKEKCGEERRRTRQFLDYLQEFLGVMSTEWAMEG
IGF-1 in bronchoalveolar lavage (BAL) fluid (IGF-1 in BAL fluid): but not IL-5, induced IGF-1 production

B3: IL-13: cytokine; recombinant mouse IL-13 (eBiosciences) (protein, UniProt P20109 19-131, looked up)
Interleukin-13: APGPVPRSVSLPLTLKELIEELSNITQDQTPLCNGSMVWSVDLAAGGFCVALDSLTNISNCNAIYRTQRILHGLCNRKAPTTVSSLPDTKIEVAHFITKLLSYTKQLFRHGPF
IGF-1 in bronchoalveolar lavage (BAL) fluid (IGF-1 in BAL fluid): induced IGF-1 production
